Measured values published in publication PMC5766609 (Scientific Reports, 2018).
Starred links: 1 amine or outer side, 2 acyl side, 3 side chain; linkers in the order of their positions; H or OH if unused. Non-standard residues stand in square brackets, D forms with d. Groups on a side chain read outwards from the residue. No end group written: not given here. *: point of attachment. γGlu = O=C(O)[C@H](CCC(=O)[*:2])N[*:1]; Palmitoyl = CCCCCCCCCCCCCCCC(=O)*

B1: Peptide 36 (peptide)
peptide: H[dS]QGTFTSDK([γGlu-γGlu-Palmitoyl])SKYLDSRRAHDFVQWLLNT-NH2
modifications: N-terminus assumed
SMILES: CCCCCCCCCCCCCCCC(=O)N[C@@H](CCC(=O)N[C@@H](CCC(=O)NCCCC[C@H](NC(=O)[C@H](CC(=O)O)NC(=O)[C@H](CO)NC(=O)[C@@H](NC(=O)[C@H](Cc1ccccc1)NC(=O)[C@@H](NC(=O)CNC(=O)[C@H](CCC(N)=O)NC(=O)[C@@H](CO)NC(=O)[C@@H](N)Cc1c[nH]cn1)[C@@H](C)O)[C@@H](C)O)C(=O)N[C@@H](CO)C(=O)N[C@@H](CCCCN)C(=O)N[C@@H](Cc1ccc(O)cc1)C(=O)N[C@@H](CC(C)C)C(=O)N[C@@H](CC(=O)O)C(=O)N[C@@H](CO)C(=O)N[C@@H](CCCNC(=N)N)C(=O)N[C@@H](CCCNC(=N)N)C(=O)N[C@@H](C)C(=O)N[C@@H](Cc1c[nH]cn1)C(=O)N[C@@H](CC(=O)O)C(=O)N[C@@H](Cc1ccccc1)C(=O)N[C@H](C(=O)N[C@@H](CCC(N)=O)C(=O)N[C@@H](Cc1c[nH]c2ccccc12)C(=O)N[C@@H](CC(C)C)C(=O)N[C@@H](CC(C)C)C(=O)N[C@@H](CC(N)=O)C(=O)N[C@H](C(N)=O)[C@@H](C)O)C(C)C)C(=O)O)C(=O)O

Assays:
[1] = molecular target: glucagon receptor (human) (UniProt P47871)
[2] = molecular target: human GLP-1 receptor (human) (UniProt P43220)
[3] = molecular target: glucagon receptor (human) (UniProt P47871); remark: listed apart in the source
[4] = molecular target: human GLP-1 receptor (human) (UniProt P43220); remark: listed apart in the source

glucagon receptor (human), sequence (P47871 26-477): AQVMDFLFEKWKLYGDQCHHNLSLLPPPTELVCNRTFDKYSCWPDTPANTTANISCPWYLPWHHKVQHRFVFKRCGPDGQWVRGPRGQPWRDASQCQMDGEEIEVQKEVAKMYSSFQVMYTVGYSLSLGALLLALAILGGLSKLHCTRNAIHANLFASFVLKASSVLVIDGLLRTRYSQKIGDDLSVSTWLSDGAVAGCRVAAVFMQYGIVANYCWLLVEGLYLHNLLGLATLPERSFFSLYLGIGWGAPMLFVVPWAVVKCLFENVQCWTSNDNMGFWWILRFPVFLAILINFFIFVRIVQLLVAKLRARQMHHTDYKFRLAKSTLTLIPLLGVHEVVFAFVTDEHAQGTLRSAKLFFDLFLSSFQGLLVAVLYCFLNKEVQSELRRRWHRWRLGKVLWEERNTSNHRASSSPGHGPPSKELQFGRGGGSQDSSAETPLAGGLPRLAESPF
human GLP-1 receptor (human), sequence (P43220 24-463): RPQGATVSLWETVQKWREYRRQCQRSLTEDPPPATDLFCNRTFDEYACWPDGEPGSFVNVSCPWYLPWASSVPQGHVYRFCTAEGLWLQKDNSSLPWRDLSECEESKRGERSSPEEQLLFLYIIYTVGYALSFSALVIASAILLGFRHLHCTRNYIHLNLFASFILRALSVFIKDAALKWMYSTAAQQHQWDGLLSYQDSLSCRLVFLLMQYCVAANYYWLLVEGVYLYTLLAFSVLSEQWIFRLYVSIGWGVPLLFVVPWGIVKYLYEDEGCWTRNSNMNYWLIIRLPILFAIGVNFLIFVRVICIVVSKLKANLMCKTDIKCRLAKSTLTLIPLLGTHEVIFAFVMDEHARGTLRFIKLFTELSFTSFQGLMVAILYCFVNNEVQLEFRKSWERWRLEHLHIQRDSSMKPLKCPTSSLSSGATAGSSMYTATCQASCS

Binder | EC50 GCGR (nM); cAMP assay on CHO-JumpIn cells with human GCGR [1] [nM] | EC50 GLP1R (nM); cAMP assay on CHO-JumpIn cells with human GLP1R [2] [nM] | EC50 hGCGR (nM); cAMP assay on CHO-JumpIn cells with human GCGR [3] [nM] | EC50 hGLP1 (nM); cAMP assay on CHO-JumpIn cells with human GLP1R [4] [nM]
HSQGTFFSDYSKYLDSRRAQDFVQWLLET-NH2 [Peptide 34] | 0.027 | 51.9 |  | 
HSQGTFTSDYSKYLDSRMAYDFVQWLMNT-NH2 [Peptide 33] | 0.079 | 0.059 |  | 
B1 |  |  | 0.023 | 0.05
HSQGTFTSDYSKYLDIGRAQDFVQWLLNT-NH2 [Peptide 4] | 0.026 | 1.33 |  | 
HSQGTFTSDYSKYLDSRRAQDFVQWLLDS-NH2 [Peptide 35] | 0.0019 | 0.018 |  | 
